According to US20240101645A1 (HENRY M JACKSON FOUNDATION FOR THE ADVANCEMENT OF MILITARY …, published 2024):

T1: MERS-CoV spike antigens (bead panel) (MERS-CoV, UniProt K9N5Q8 18-1296)
T1 sequence: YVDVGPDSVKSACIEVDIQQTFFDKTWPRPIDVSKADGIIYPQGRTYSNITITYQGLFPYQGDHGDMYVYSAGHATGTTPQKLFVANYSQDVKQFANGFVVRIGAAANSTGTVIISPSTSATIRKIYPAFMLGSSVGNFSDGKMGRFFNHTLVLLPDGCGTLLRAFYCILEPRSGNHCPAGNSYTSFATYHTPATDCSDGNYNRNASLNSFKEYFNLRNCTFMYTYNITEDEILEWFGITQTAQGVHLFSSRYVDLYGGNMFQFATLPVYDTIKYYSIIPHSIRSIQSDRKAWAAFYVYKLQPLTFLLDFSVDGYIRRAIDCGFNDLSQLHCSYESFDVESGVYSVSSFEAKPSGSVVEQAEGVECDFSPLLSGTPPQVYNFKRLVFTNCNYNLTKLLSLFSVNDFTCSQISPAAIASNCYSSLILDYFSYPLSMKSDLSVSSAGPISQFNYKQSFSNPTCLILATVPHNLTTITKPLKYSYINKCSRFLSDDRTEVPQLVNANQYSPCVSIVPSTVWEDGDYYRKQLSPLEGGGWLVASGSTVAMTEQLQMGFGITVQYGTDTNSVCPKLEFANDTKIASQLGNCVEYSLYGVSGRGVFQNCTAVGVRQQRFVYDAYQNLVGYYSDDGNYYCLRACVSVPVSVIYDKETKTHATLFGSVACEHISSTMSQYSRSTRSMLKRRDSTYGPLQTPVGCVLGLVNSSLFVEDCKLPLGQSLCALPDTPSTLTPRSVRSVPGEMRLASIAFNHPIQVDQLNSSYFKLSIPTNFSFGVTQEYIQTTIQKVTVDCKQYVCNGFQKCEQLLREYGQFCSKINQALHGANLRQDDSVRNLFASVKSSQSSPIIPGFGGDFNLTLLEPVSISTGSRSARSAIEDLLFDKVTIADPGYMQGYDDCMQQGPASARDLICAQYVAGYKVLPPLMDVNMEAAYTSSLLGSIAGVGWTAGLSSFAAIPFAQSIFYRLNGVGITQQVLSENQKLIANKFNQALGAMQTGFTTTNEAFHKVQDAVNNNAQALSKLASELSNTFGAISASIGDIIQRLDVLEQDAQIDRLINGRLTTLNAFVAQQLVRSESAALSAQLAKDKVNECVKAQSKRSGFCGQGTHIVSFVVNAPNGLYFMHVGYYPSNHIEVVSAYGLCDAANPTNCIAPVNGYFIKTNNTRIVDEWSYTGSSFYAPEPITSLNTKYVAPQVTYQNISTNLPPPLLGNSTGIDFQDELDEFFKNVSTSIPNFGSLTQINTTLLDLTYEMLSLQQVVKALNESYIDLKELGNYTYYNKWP

B1: COV_2039 (antibody, V domains shown)
VH: QVQLVQSGAEVKKPGASVKVSCKVSGYMLIELSMHWVRQAPGKGLEWMGGFDPEDAETIYAQEFQGRVTMTEDTSTDTAYMELSSLRSEDTAVYYCTTGPAVTNRPADYWGPGTLVTVSS
VL: QSVLTQPPSVSGAPGQRVTISCTGSSSNIGASYDVHWYQQLPGTAPKLLIYANSNRPSGVPDRFSGSKSGTSASLAITGLQAEDEADYYCQSYDSSLSYSVVFGGGTKLTVL
notes: human IgG1
B2: COV_2028 (antibody, V domains shown)
VH: QVQLQESGPGLVKPSGTLSLTCVVSGGSISSSNWWSWVRQPPGKGLEWIGEIYHSGSTNYNPSLKSRVTISVDKSKNQFSLRLTSVTAADTAVYYCARGWNYDYWGQGTLVTVSS
VL: QSALTQPASVSGSPGQSITIACTGTSSDVGSYNLVSWYQQHPGKAPKLMIYEVSKRPSGLSNRFSGSKSGNTASLTISGLQAEDEADYYCYSYAGSSTWVFGGGTKLTVL
notes: human IgG1
B3: COV_2035 (antibody, V domains shown)
VH: QVQLVQSGAEVKKPGASVKVSCKVSGYTLPELSIHWVRQAPGKGLEWLGGFDPEDGKIIYAQKFQGRVTMTEDTSTDTAYMELSSLRSEDTAVYYCATSPAVVERGWFDPWGQGTLVTVSS
VL: QSALTQPPSASGSPGQSVTISCTGTSSDVGGYNYVSWYQQHPGKAPKLMIYEVSKRPSGVPDRFSGSKSGNMASLTVSGLQAEDEANYYCSSYAGSKRVFGGGTKLTVL
notes: human IgG1
B4: COV_2103 (antibody, V domains shown)
VH: EVQLVESGGGVVQPGRSLRLSCGASGFTFSSYGIHWVRQAPGKGLDWVAVIWHDGSQKYYGDSVKGRFTISRDNSKNTLYLQMNRLRAEDTAVYYCARDSGDDYDSSGYPIGNAFDLWGQGTMVTVSS
VL: DIQMTQSPSTLSASVGDRVTITCRASQFINSWLAWYQQKPGKAPKLLIYKASSLETGVPSRFSGSGSGTEFTLTISSLQPDDFATYYCQQYNTYSFTFGPGTKVDIK
notes: human IgG1
B5: COV_2004 (antibody, V domains shown)
VH: QVQLVQSGAEVKKPGASVKVSCKASGYTFTGYYMHWVRQAPGQGLEWMGRINPSSGGTNYAQKFQGRVTMTRDTSISTAYMELSSLRSDDTAVYYCATDGDDGENWFDPWGQGTLVIVSS
VL: DIQMTQSPSSLSASVGDRVTITCRASQGISSWLAWYQQKPEKAPKSLIYAASSLQSGVPSRFSGSGSGTDFTLTISSLQPEDFATYYCQQYNSYPYTFGQGTKLEIK
notes: human IgG1
B6: COV_2054 (antibody, V domains shown)
VH: EVQLVESGGGVLQPGRSLRLSCAASGFTFNNYALHWVRQAPGKGLEWVAVISYDGSSKYYADSVRGRLTISRDNSRNTLYLQMNSLRPEDTAIYYCARDGDGLWLGESFYFDDWGQGTLVTVSS
VL: DIQMTQSPSTLSASVGDRVIITCRASQSISSWLAWYQQKPGKAPKLLIYEASTLQSGVPSRFSGSGSGTEFTLTISSLQPDDSATYYCQQYNSYPVHFSQGTKLEIK
notes: human IgG1
B7: COV_2025 (antibody, V domains shown)
VH: QVHLVQSGAEVKKPGASVKVSCKVSGYTLVELSVHWVRQAPAKGLEWIGGFDPEDGETIYAQKFQGRVTMTEDTSTDTAYMELTNLRSEDTAVYYCVTSQPFVSPNWFDPWGQGTLVTVSS
VL: QSALTQPASVSGSPGQSITISCTGTSRDVGAYNYVSWYQQHPGKAPKLMIYEVTTRPSGVSNRFSGSKSGNTASLTISGLQAEDEADYYCSSYTGSRTLVFGTGTKVTVL
notes: human IgG1
B8: COV_2037 (antibody, V domains shown)
VH: QVQLVQSGAEVKKPGASVKVSCKVSGYTLTELSMHWVRQAPGKGLEWMGGFDPEDAETIYAQKFQGRVTMTEDTSTDTAYMELSSLRSEDTAVYYCATAGAITGTPTNYSYYYGMDFWGQGTTVTVSS
VL: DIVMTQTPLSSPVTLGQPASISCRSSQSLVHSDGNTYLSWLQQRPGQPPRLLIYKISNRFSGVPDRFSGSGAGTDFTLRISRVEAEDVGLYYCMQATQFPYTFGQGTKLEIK
notes: human IgG1
B9: COV_2123 (antibody, V domains shown)
VH: EVQLVESGGGVVQPGRSLRLSCAASGFTFSSYAMHWVRQAPGKGLEWVAVLSYDGSNKYNADSVKGRFTISRDNSKNTLYLQMNSLRVEDTAMYYCARDGVSVTMVRGVIGPLCDYWGQGTLVTVSS
VL: not shown
notes: human IgG1
B10: COV_2137 (antibody, V domains shown)
VH: EVQLVESGGGLVKPGGSLRLSCAASGFTFSSYTMNWVRQAPGKGLEWVSSISSGSSFIYYADSLRGRFTISRDNAKNSLYLQMNSLRAEDTAVYYCARAPEPQSVIYAYWYFDLWGRGTLVTVSS
VL: QSALTQPASVSGSPGQSITFSCTGTSSDVGSYNLVSWYQQYPGKAPKLMIYEVNKRPSGVSNRFSGSKSGNTASLTISGLQAEDEADYYCCSYAGSSTFYVFGTGTKVTVLG
notes: human IgG1

Target: T2, SARS-CoV-2 NTD (1-290) (SARS-CoV-2, UniProt P0DTC2 14-290)
T2 construct: range 1-290
Assay: BLI, 1:1 model

Binder | Kd [pM]
B1 | < 1
B2 | 40.7
B3 | < 1
B4 | < 1
B5 | < 1
B6 | < 1
B7 | < 1
B8 | < 1

Target: T3, SARS-CoV-2 S on pseudovirions (Wuhan Hu-1 / IL1/2020, last 18 amino acids removed) (SARS-CoV-2, UniProt P0DTC2 14-1273)
Assay: cell-based or functional assay

Binder | IC50, pseudotyped neutralization assay [ng/mL]
B1 | 6
B9 | 4
B7 | 9

Target: T2, SARS-CoV-2 NTD (1-290)
Assay: multiplex bead assay

Binder | binding result
B10 | binds

Target: SARS-CoV-1 spike antigens (bead panel) (SARS-CoV-1, UniProt P59594 14-1195)
Assay: multiplex bead assay

Binder | binding result
B1 | no binding
B2 | no binding
B3 | no binding
B4 | no binding
B5 | no binding
B10 | no binding
B6 | no binding
B7 | no binding
B8 | no binding

Target: T1, MERS-CoV spike antigens (bead panel)
Assay: multiplex bead assay

Binder | binding result
B5 | no binding
B10 | no binding

Target: T3, SARS-CoV-2 S on pseudovirions (Wuhan …)
Assay: cell-based or functional assay
Remark: another data set of the same source

Binder | Mean IC50, pSV neutralization [µg/ml] | Mean IC80, pSV neutralization [µg/ml]
B1 | 0.01 | 1.8
B2 | ≥ 25 | ≥ 25
B9 | – | 0.03
B3 | 0.04 | ≥ 25
B4 | ≥ 25 | ≥ 25
B5 | 0.04 | 3.64
B6 | ≥ 25 | ≥ 25
B7 | 0.02 | 0.49
B8 | 0.07 | ≥ 25
